Test: yeast display, Sf9 membrane polyspecificity reagent, FACS + sequencing; frameworks hold sequencing errors
Outline: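 In a synthetic yeast display library (Saccharomyces cerevisiae BJ5465), nanobody expression was induced with galactose for 36–48 hours. FACS gates were set low and high (top ~1%) using anti-HA fluorescence for expression and streptavidin fluorescence for binding of the Sf9 membrane reagent. Each polyreactivity label is drawn from the gate of origin.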

Row | Sequence | polyreactivity (PSR sort gate)
1 | QVQLVESGGGLFQAGGSLRLRCAATGLIFDLYAMGWYRQAPGKERELVAVISYDGGSTYYADSVKGRFTISRDNAKNTVYLQMNSLKPEETAVYYCNTFDGLVSPSDLYDYWGQGTQVTVSS | low polyreactivity
2 | QVQLVESGGGLFQAGGSLRLSCAASGFIFRDNAMGWYRQAPGKERELVAAISWSSDSTYYADSVKGRFTISRDNEKNTVYLQMNSLNPEDSAVYYCAGKGQRGYWWGFDYWGQGTQVTVSS | low polyreactivity
3 | QVQLVESGGGLFQAGGSLRLSCAASGFIFRYYAMGWYRQAPGKERELVAAITRGGSTYYADSVKGRFTISRDNAKNTVYLQMNSLKPEDTAVYDCAARLYTQYYYWGQCTQVTVSS | high polyreactivity
4 | QVQLVESGGGLFQAGGSLRLSCAASGFIFYPNAMGWYRQAPGKEREWVAAITDSGGSTYYADSVKGRFTISRDNAKNTVYLQMNSLKPEDTAVYYCNADYGGYYWTWGYDYWGQGTQVTVSS | low polyreactivity
5 | QVQLVESGGGLFQAGGSLRLSCAASGFTFFIYAMGGSRQAPGKEREFVAAITGSGGSTYYADSVKGRFTISRDNAKNTVYLQLNSLKPEDTAVYYCNKLSYGRSGYWGQGTQVTVSS | high polyreactivity
6 | QVQLVESGGGLFQAGGSLRLSCAASGFTFGYYAMGWYRQAPGKERELVASISITAGSTYYADSVKGRFTISRDNAKNTVYLQMNSLKPEDTAVYYCAAKRRTRQSYYTEYYWGQGTQVTVSS | high polyreactivity
7 | QVQLVESGGGLFQAGGSLRLSCAASGFTFRTYAMGWYRQAPGKERELVATIRRAGSTNYADSVKGRFTISRDNAKNTVYLQMNRLKPEDTAVYYCNAGFSHRSDNGIDGYYWGPGTQVTVSS | high polyreactivity
8 | QVQLVESGGGLFQAGGSLRLSCAASGGIFPFYAMGWYRQAPGKERELVAAISSGGSTNYADSVKGRFTISRDNAKNTVYLQMNSLKPEDTAVYYWNTVFQLGEGGSYGYDYWGQGTQVTVSS | low polyreactivity
9 | QVQLVESGGGLFQAGGSLRLSCAASGITFAYYAMAWYRQAPGKERELVARISRRGGSTYYADSVKGRFTISRDNAKNTVYLQMNSLKPEDTAVYYCAARVVVPKPYVDGDYWGQGTQVTVSS | high polyreactivity
10 | QVQLVESGGGLFQAGGSLRLSCAASGITFSKNSMGWYRQAPGQERELVAAITRRSVSKYYADSVKGRFTISRDNENNNLYLQMNSLKPEYTAVYYCAASYSSKHGYWGQGTQVTVSS | high polyreactivity
11 | QVQLVESGGGLFQAGGSLRLSCAASGLTFNRYAMGWSRQAPGKERELVAAIDYSGGRTYYADSVKGRFTISRDYAKNTVYLQMNSLKPEDTAVFYCNALTRSVSRLLYDFWGQGSQVTVSS | high polyreactivity
12 | QVQLVESGGGLFQAGGSLRLSCAASGRIFAYNTMGWYRQAPAKERELVAVITSGGSTNYADSVKGRFTISRDNAKNTVYLQLNSLKAEDTAVYYCAKRPYGRSGGSRYDYWGQGTQVTVSS | high polyreactivity
13 | QVQLVESGGGLFQAGGSLRLSCAASGRIFPWNTMGWYRQAPGKERELVAGINNGDRTYYADSVKGRFTISRVNAKNTVYLQMNSLKPEDTAVYYCAVDTWYFLFQYGYYQEGDYWGQGTQVTVSS | low polyreactivity
14 | QVQLVESGGGLFQAGGSLRLSCAASGRIFPYKVMGWYRQAPGKERELVAAISSGGTTDYADSVKGRFTISRDNAKNTVYLQMNSLKPEDTAVYYCASTYVYWTWGYDYWGQGTQVTVSS | low polyreactivity
15 | QVQLVESGGGLFQAGGSLRLSCAASGRIFYYNTMGWYRQAPGIERELVAGISTRGGRTYYADSVKGRFTISRDNAKNTVYLQMNSLKPEDTAVYYCAKQYGSYGRYYKYYYWGQGTQLTVSS | high polyreactivity
16 | QVQLVESGGGLFQAGGSLRLSCAASGRTFKNNAMGWYRQAPGKERELVAAISSNGGSTYYADSVKGRFTISRDNAKNTVYLQMNSLKPEDTAVYYCAADRTIVEYYYWGQGTQVTVSS | high polyreactivity
17 | QVQLVESGGGLFQAGGSLRLSCAASGSIFERYTMGWYRQSPGKERELVAAISRSGGRTYYADSVKGRFTISRDNAKNTVYLQMNSLKAEDTAVYYCARTRVASKGYDYWGQGTQVTVSS | high polyreactivity
18 | QVQLVESGGGLFQAGGSLRLSCAASGSIFGDYAMGWYRQAPGKERELVAAITSSGGITYYADSVKGRFTISRDNAKNTVYLQMNSLKPEDTAVYYCAAYGYGSNYRYTCYYYWGQGTQVTVSS | low polyreactivity
19 | QVQLVESGGGLFQAGGSLRLSCAASGSIFRVYGMGWYRQAPGKERDLVAAITWSGGSTYYADSVKGRFTISRDNAKNTLYVQINSLKPDATAVYYCAARARPRYYRPPYDYWGQGTQVTVSS | high polyreactivity
20 | QVQLVESGGGLFQAGGSLRLSCAASGSIFYINAMGWYRQAPGKERELVAAISQSDGSTYYADSVKGRFTISSDNAKNTVYLQLNSLKPEDTAVYYCAADAYVLFYGDWYEFDYWGQGTQVTVSS | high polyreactivity
21 | QVQLVESGGGLFQAGGSLRLSCAASGSIYRKYAMGWYRQAPGKERELVATISWNGGRTHYADSVKGRFTISRDNAKNTVYLQMKSLKPEDTAVYYCAAHTRTSGHNYWGQGTQVTVSS | low polyreactivity
22 | QVQLVESGGGLFQAGGSLRLSCAASGSTFAFYDMGWYRQATGIERELVAIIDWSGGRTYYADSVKGRFTISRDNAKHTVYLQMNSLKPQDTAVYYCAVDYEYVGGDYWGQGTQVTVSS | low polyreactivity
